Assay results taken from publication PMC9499004, “Impact of G-Quadruplex Structures on Methylation of Model Substrates by DNA Methyltransferase Dnmt3a”.

Legend:
Dnmt3a-CD = Dnmt3a-CD (murine, UniProt O88508 608-908); test: EMSA; 1 uM protein, 100 uM AdoHcy; 20 mM HEPES-NaOH pH 7.5, 100 mM KCl, 1 mM EDTA, 1 mM DTT, 100 uM AdoHcy, 25 C (EMSA: + 6% glycerol, 30 min, 60 nM DNA, gel at 4 C; FP: 10 nM DNA); settings: protein: recombinant; tags: N-terminal 6xHis; chain copies: 2; label: fluorophore (FAM or TAMRA); no G4
[1] = molecular target: T1, AIR-Dnmt3a2 (autoinhibition removed) (murine, UniProt O88508-2 1-689, Y303A;Y305A); test: as above
M.SssI = M.SssI (prokaryotic (species ), UniProt P15840 1-386); test: EMSA; 100 uM AdoHcy; 20 mM HEPES-NaOH pH 7.5, 100 mM KCl, 1 mM EDTA, 1 mM DTT, 100 uM AdoHcy, 25 C (EMSA: + 6% glycerol, 30 min, 60 nM DNA, gel at 4 C; FP: 10 nM DNA); settings: protein: recombinant; label: FAM; 30 bp duplex
M.SssI, sequence (P15840 whole entry): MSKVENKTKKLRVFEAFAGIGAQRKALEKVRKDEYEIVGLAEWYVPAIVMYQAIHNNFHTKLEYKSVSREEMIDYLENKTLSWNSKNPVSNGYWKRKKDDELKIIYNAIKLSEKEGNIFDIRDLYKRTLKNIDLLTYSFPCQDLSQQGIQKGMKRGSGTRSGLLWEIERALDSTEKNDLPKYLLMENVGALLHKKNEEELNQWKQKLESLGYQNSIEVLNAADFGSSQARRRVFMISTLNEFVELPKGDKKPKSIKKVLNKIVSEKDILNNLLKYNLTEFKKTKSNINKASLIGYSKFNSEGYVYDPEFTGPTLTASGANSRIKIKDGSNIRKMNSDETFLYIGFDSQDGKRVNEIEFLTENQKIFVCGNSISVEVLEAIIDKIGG

[2] = molecular target: T1, AIR-Dnmt3a2 (autoinhibition removed); test: EMSA; 1 uM protein, 100 uM AdoHcy; no difference from 76Tf/95Bf-G4; 20 mM HEPES-NaOH pH 7.5, 100 mM KCl, 1 mM EDTA, 1 mM DTT, 100 uM AdoHcy, 25 C (EMSA: + 6% glycerol, 30 min, 60 nM DNA, gel at 4 C; FP: 10 nM DNA)

Binder: AGGGAGTGAGTGAGTGAGTATA (ssDNA) [22(GAGT)4f]
- binding signal (Dnmt3a-CD): ~4 fold weaker than 19G4f
- binding signal [1]: ~4 fold weaker than 19G4f

B1: 30Tf/30Bf (dsDNA)
DNA 1: CTGAATACTACTTGCGCTCTCTAACCTGAT
DNA 2: ATCAGGTTAGAGAGCGCAAGTAGTATTCAG
- binding result (M.SssI): binds

B2: 76Tf/76Bf (dsDNA)
DNA 1: TCCTTTCGCGCTTGGATCCTATGAGCGTTACTCGAGCATATGGCTCAGCTGCCAGGCACCAGTGTCAGCGTCCTAT
DNA 2: ATAGGACGCTGACACTGGTGCTTGGCAGCTGAGCCATATGCTCGAGTAACGCTCATAGGATCCAAGCGCGAAAGGA
- binding result [2]: binds
